Measured values: paper PMC4802085 (2016)
One block for each binder: values may come before it.

Key:
[1] = target: T1, recombinant PGRMC1 of the surface plasmon resonance analyses (human, UniProt O00264 44-195); assay: SPR; haem-bound PGRMC1
[2] = target: T1, recombinant PGRMC1 of the surface …; assay: SPR; haem-bound PGRMC1; remark: listed apart in the source
[3] = target: T2, HO1 (Homo sapiens); assay: SPR
T2 chain: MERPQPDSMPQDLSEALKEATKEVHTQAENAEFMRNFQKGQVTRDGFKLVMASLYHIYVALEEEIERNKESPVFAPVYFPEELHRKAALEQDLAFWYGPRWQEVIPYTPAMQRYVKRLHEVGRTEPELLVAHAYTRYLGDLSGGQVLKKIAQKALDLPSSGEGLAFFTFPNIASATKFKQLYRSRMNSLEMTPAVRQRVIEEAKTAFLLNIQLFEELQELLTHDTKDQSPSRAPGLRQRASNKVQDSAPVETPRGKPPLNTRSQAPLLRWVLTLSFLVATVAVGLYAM

[4] = target: T2, HO1; assay: SPR
[5] = target: Gαi1 (Homo sapiens); assay: SPR
Gαi1 (Homo sapiens), sequence (chain, as listed by the source): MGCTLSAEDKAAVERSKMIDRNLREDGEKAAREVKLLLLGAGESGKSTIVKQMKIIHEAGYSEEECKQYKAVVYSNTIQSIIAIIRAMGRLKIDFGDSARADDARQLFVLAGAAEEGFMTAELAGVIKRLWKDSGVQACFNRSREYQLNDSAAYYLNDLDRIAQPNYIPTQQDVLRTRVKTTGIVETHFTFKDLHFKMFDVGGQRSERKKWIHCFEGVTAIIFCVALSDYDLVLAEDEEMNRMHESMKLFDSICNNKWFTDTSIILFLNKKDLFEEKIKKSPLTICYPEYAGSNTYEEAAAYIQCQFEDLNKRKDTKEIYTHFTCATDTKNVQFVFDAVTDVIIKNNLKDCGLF

[6] = target: Gαi1 (Homo sapiens); assay: SPR; remark: listed apart in the source

T1 sequence (O00264 44-195): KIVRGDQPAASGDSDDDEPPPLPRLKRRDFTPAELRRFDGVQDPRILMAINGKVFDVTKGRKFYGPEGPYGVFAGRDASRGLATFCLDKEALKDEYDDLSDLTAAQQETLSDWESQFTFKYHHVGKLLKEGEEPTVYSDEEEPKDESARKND

Kd [1]: 5900 nM
koff [2]: 0.0012 s⁻¹
B1: recombinant CYP51 (enzyme)
chain: MAAAAGMLLLGLLQAGGSVLGQAMEKVTGGNLLSMLLIACAFTLSLVYLIRLAAGHLVQLPAGVKSPPYIFSPIPFLGHAIAFGKSPIEFLENAYEKYGPVFSFTMVGKTFTYLLGSDAAALLFNSKNEDLNAEDVYSRLTTPVFGKGVAYDVPNPVFLEQKKMLKSGLNIAHFKQHVSIIEKETKEYFESWGESGEKNVFEALSELIILTASHCLHGKEIRSQLNEKVAQLYADLDGGFSHAAWLLPGWLPLPSFRRRDRAHREIKDIFYKAIQKRRQSQEKIDDILQTLLDATYKDGRPLTDDEVAGMLIGLLLAGQHTSSTTSAWMGFFLARDKTLQKKCYLEQKTVCGENLPPLTYDQLKDLNLLDRCIKETLRLRPPIMIMMRMARTPQTVAGYTIPPGHQVCVSPTVNQRLKDSWVERLDFNPDRYLQDNPASGEKFAYVPFGAGRHRCIGENFAYVQIKTIWSTMLRLYEFDLIDGYFPTVNYTTMIHTPENPVIRYKRRSK

Kd [3]: 2400 nM
koff [4]: 0.004 s⁻¹
B2: CPR (protein)
chain: MGDSHVDTSSTVSEAVAEEVSLFSMTDMILFSLIVGLLTYWFLFRKKKEEVPEFTKIQTLTSSVRESSFVEKMKKTGRNIIVFYGSQTGTAEEFANRLSKDAHRYGMRGMSADPEEYDLADLSSLPEIDNALVVFCMATYGEGDPTDNAQDFYDWLQETDVDLSGVKFAVFGLGNKTYEHFNAMGKYVDKRLEQLGAQRIFELGLGDDDGNLEEDFITWREQFWPAVCEHFGVEATGEESSIRQYELVVHTDIDAAKVYMGEMGRLKSYENQKPPFDAKNPFLAAVTTNRKLNQGTERHLMHLELDISDSKIRYESGDHVAVYPANDSALVNQLGKILGADLDVVMSLNNLDEESNKKHPFPCPTSYRTALTYYLDITNPPRTNVLYELAQYASEPSEQELLRKMASSSGEGKELYLSWVVEARRHILAILQDCPSLRPPIDHLCELLPRLQARYYSIASSSKVHPNSVHICAVVVEYETKAGRINKGVATNWLRAKEPAGENGGRALVPMFVRKSQFRLPFKATTPVIMVGPGTGVAPFIGFIQERAWLRQQGKEVGETLLYYGCRRSDEDYLYREELAQFHRDGALTQLNVAFSREQSHKVYVQHLLKQDREHLWKLIEGGAHIYVCGDARNMARDVQNTFYDIVAELGAMEHAQAVDYIKKLMTKGRYSLDVWS
modifications: FAD and FMN cofactors; literature comparison value, construct not given, full length and human species assumed haem state not stated; literature comparison value, the cited study may have used a C-terminally truncated soluble form

Kd [5]: 600 nM
koff [6]: 0.0003 s⁻¹
B3: Neuroglobin (protein)
chain: MERPEPELIRQSWRAVSRSPLEHGTVLFARLFALEPDLLPLFQYNCRQFSSPEDCLSSPEFLDHIRKVMLVIDAAVTNVEDLSSLEEYLASLGRKHRAVGVKLSSFSTVGESLLYMLEKCLGPAFTPATRAAWSQLYGAVVQAMSRGWDGE
modifications: haem b bound (oxidation state not stated); literature comparison value, construct not given; check residues are from general knowledge, not the paper nucleotide state not stated; literature comparison value, construct and species not given; check residues are from general knowledge, not the paper
